# Results: publication PMC8836581, “A Microplate-Based Approach to Map Interactions between TDP-43 and α-Synuclein” (Journal of Clinical Medicine, 2022)
# B1: TDP-43 overlapping peptide aa 305–323 (peptide)
# peptide: SNMGGGMNFGAFSINPAMM
# notes: source: synthetic peptide (Lugen Sci Co., Ltd.)
# B2: TDP-43 peptide 17 (aa 310–329) (peptide)
# peptide: GMNFGAFSINPAMMAAAQAA
# notes: That this stretch has no internal cysteine is my surmise; source: synthetic peptide (Lugen Sci Co., Ltd.)
# B3: α-synuclein peptide, amino acids 61–76 (peptide, UniProt P37840 61-76, looked up)
# peptide: EQVTNVGGAVVTGVTA
# notes: alpha synuclein residues 61-76, start of the non-amyloid β component (NAC); also called first 16 residues of the NAC; first 15 residues of the NAC region; source: synthetic peptide (Lugen Sci Co., Ltd.)
# Tests used:
# [1] = target: full length recombinant alpha synuclein (UniProt P37840 1-140); test: ELISA; synthetic peptides (5 µg/mL in PBS, 10 mM EDTA) coupled through cysteine to maleimide-activated microplate wells, blocked with L-cysteine; 0.1 µg/mL recombinant protein added 1 h at 37 °C; biotinylated detection antibody, streptavidin-HRP, TMB, absorbance at 450 nm; details: both partners purified
# [2] = target: T1, full length recombinant TDP-43 (UniProt Q13148 1-414); test: as above; details: both partners purified
# T1 construct: Called monomeric in the conventional ELISA; also called full-length TDP-43; source: recombinant
# T1 sequence (Q13148 whole entry): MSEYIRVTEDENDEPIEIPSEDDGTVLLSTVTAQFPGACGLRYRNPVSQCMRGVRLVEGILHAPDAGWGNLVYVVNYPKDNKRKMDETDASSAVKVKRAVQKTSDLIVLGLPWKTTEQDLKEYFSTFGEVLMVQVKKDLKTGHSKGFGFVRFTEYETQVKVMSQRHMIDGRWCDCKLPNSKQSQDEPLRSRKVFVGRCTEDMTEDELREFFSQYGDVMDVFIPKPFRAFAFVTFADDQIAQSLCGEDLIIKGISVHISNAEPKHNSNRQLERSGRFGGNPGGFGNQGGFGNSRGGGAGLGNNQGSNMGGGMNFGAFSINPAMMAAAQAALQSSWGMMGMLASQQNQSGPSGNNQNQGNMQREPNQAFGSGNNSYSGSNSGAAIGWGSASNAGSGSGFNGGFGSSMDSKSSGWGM
Binder,binding result [1],binding result [2]
B1,binds,
B2,binds,
B3,,binds
